Paper PMC8443706, “Functionally diverse heteromeric traps for ligands of the transforming growth factor-β superfamily” (Scientific Reports, 2021)
Values belong to the binder of their own block, whether it stands above or below them.

Columns and labels:
activin A [1] = biological target: T1, activin A (human, UniProt P08476 311-426); assay: SPR; Biacore 8K, 37 °C; Fc-fusion receptor dimers captured by anti-human Fc antibody on a CM5 chip (100-150 RU); ligands injected in two-fold dilution series (300 s association, 600 s dissociation); HBS-EP+ supplemented with 350 mM NaCl and 0.5 mg/mL BSA; 1:1 Langmuir model with a term for mass transport; settings: both partners purified
T1 construct: source: generated in house
T1 sequence (looked up): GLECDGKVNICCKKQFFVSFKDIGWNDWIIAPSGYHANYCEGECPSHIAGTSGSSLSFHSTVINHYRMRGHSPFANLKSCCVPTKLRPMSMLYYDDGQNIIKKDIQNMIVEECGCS

GDF11 [2] = biological target: T2, GDF11 (human, UniProt O95390 299-407); assay: as above; settings: both partners purified
T2 construct: source: generated in house
T2 sequence (looked up): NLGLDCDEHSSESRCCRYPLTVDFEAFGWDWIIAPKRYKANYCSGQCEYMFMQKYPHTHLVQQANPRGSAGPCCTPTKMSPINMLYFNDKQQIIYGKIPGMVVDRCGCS

activin A [3] = biological target: T1, activin A; assay: cell-based or functional assay
BMP6 = biological target: T3, BMP6 (human, UniProt P22004 375-513); assay: SPR; Biacore 8K, 37 °C; Fc-fusion receptor dimers captured by anti-human Fc antibody on a CM5 chip (100-150 RU); ligands injected in two-fold dilution series (300 s association, 600 s dissociation); HBS-EP+ supplemented with 350 mM NaCl and 0.5 mg/mL BSA; 1:1 Langmuir model with a term for mass transport; settings: both partners purified
T3 construct: source: bought: R&D Systems
T3 sequence (looked up): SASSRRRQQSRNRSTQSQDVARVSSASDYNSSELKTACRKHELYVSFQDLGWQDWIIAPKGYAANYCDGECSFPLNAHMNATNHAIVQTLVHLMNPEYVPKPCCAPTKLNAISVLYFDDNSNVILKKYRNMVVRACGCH

BMP9 = biological target: T4, BMP9 (human, UniProt Q9UK05 320-429); assay: cell-based or functional assay
T4 sequence (looked up): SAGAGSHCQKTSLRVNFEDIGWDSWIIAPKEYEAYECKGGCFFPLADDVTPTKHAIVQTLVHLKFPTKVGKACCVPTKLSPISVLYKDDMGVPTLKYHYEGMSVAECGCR

[4] = biological target: T5, growth differentiation factor 8 (GDF8, or myostatin) (human, UniProt O14793 267-375); assay: cell-based or functional assay
T5 sequence (looked up): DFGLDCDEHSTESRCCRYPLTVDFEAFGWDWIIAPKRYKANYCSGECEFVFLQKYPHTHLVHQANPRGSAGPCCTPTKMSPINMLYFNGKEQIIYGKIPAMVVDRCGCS

BMP10 = biological target: T6, BMP10 (human, UniProt O95393 317-424); assay: cell-based or functional assay
T6 sequence (looked up): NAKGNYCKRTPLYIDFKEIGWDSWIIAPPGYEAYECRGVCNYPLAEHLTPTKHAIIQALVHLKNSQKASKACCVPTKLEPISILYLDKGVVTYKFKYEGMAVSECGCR

activin B = biological target: T7, activin B (human, UniProt P09529 293-407); assay: cell-based or functional assay
T7 sequence (looked up): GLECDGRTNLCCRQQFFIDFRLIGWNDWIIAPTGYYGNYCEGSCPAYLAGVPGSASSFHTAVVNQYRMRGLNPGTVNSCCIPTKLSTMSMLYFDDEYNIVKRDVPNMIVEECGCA

GDF11 [5] = biological target: T2, GDF11; assay: cell-based or functional assay
BMP7 = biological target: T8, BMP7 (human, UniProt P18075 293-431); assay: SPR; same experiment as a1 (Biacore 8K, 37 °C, receptor dimers captured by anti-human Fc, HBS-EP+ with 350 mM NaCl added and 0.5 mg/mL BSA) but fitted with a bivalent analyte model (bold cells of Table 1); the first binding step is the one considered; settings: both partners purified
T8 construct: source: bought: R&D Systems
T8 sequence (looked up): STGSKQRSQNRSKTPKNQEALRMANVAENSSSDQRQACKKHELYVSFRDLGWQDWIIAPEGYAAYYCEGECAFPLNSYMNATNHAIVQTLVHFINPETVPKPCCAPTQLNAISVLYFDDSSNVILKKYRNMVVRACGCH

Kd (activin A [1]): > 10 nM
koff (activin A [1]): > 0.01 s⁻¹
kon (activin A [1]): 200000 M⁻¹ s⁻¹
Kd (GDF11 [2]): > 10 nM
koff (GDF11 [2]): > 0.01 s⁻¹
kon (GDF11 [2]): 500000 M⁻¹ s⁻¹
IC50 of the trap for inhibition of ligand-induced SMAD2/3 (CAGA12) luciferase reporter signalling in A204 cells (ligand with the cells' receptors) (activin A [3]): > 100 nM
B1: ALK4-Fc:ALK4-Fc homodimer (R&D Systems Cat #808-AR-100) (Fc fusion, human, UniProt P36896-1 24-126, looked up)
chain: SGPRGVQALLCACTSCLQANYTCETDGACMVSIFNLDGMEHHVRTCIPKVELVPAGKPFYCLSSEDLRNTHCCYTDYCNRIDLRVPSGHLKEPEHPSMWGPVE
notes: activin receptor-like kinase 4 (ALK4) extracellular domain, human; Bought product; source: bought: R&D Systems (Cat #808-AR-100); not shown: Fc (human)

Kd (BMP6): 0.348 nM
koff (BMP6): 0.00273 s⁻¹
kon (BMP6): 7.8e+06 M⁻¹ s⁻¹
IC50 of the trap for inhibition of ligand-induced SMAD2/3 (CAGA12) luciferase reporter signalling in A204 cells (ligand with the cells' receptors) (activin A [3]): 0.11 nM
IC50 of the trap for inhibition of ligand-induced SMAD1/5/8 (BRE) luciferase reporter signalling in T98G cells (ligand with the cells' receptors) (BMP9): 0.57 nM
IC50 of the trap for inhibition of ligand-induced SMAD2/3 (CAGA12) luciferase reporter signalling in A204 cells (ligand with the cells' receptors) [4]: 0.76 nM
IC50 of the trap for inhibition of ligand-induced SMAD1/5/8 (BRE) luciferase reporter signalling in T98G cells (ligand with the cells' receptors) (BMP10): 0.03 nM
IC50 of the trap for inhibition of ligand-induced SMAD2/3 (CAGA12) luciferase reporter signalling in A204 cells (ligand with the cells' receptors) (activin B): 0.06 nM
IC50 of the trap for inhibition of ligand-induced SMAD2/3 (CAGA12) luciferase reporter signalling in A204 cells (ligand with the cells' receptors) (GDF11 [5]): 0.09 nM
Kd (BMP7): > 10 nM
koff (BMP7): > 0.01 s⁻¹
kon (BMP7): 800000 M⁻¹ s⁻¹
B2: IIB-Fc:IIB-Fc homodimer (human ActRIIB ECD fused to human IgG1 Fc) (Fc fusion, UniProt Q13705-1 19-134, looked up)
chain: SGRGEAETRECIYYNANWELERTNQSGLERCEGEQDKRLHCYASWRNSSGTIELVKKGCWLDDFNCYDRQECVATEENPQVYFCCCEGNFCNERFTHLPEAGGPEVTYEPPPTAPT
notes: activin receptor type IIB (ActRIIB) extracellular domain, human, aa 19-134 of NP_001097.2; Chains linked by disulfide bonds between the Fc domains; a form with murine IgG2a Fc was used only in mice; also called ActRIIB-Fc homodimer; ActRIIB-Fc; not shown: Fc (human IgG1), C-terminal, kept

IC50 of the trap for inhibition of ligand-induced SMAD2/3 (CAGA12) luciferase reporter signalling in A204 cells (ligand with the cells' receptors) (activin A [3]): 0.19 nM
IC50 of the trap for inhibition of ligand-induced SMAD1/5/8 (BRE) luciferase reporter signalling in T98G cells (ligand with the cells' receptors) (BMP9): 8.47 nM
IC50 of the trap for inhibition of ligand-induced SMAD2/3 (CAGA12) luciferase reporter signalling in A204 cells (ligand with the cells' receptors) [4]: 2.04 nM
IC50 of the trap for inhibition of ligand-induced SMAD1/5/8 (BRE) luciferase reporter signalling in T98G cells (ligand with the cells' receptors) (BMP10): 0.7 nM
IC50 of the trap for inhibition of ligand-induced SMAD2/3 (CAGA12) luciferase reporter signalling in A204 cells (ligand with the cells' receptors) (activin B): 0.16 nM
IC50 of the trap for inhibition of ligand-induced SMAD2/3 (CAGA12) luciferase reporter signalling in A204 cells (ligand with the cells' receptors) (GDF11 [5]): 0.34 nM
B3: IIB-Fc:ALK4-Fc heterodimer (human ActRIIB ECD-Fc paired with human ALK4 ECD-Fc) (Fc fusion)
chain 1: B2 chain
chain 2: B1 chain

IC50 of the trap for inhibition of ligand-induced SMAD2/3 (CAGA12) luciferase reporter signalling in A204 cells (ligand with the cells' receptors) (activin A [3]): 2.62 nM
IC50 of the trap for inhibition of ligand-induced SMAD1/5/8 (BRE) luciferase reporter signalling in T98G cells (ligand with the cells' receptors) (BMP9): 23.4 nM
IC50 of the trap for inhibition of ligand-induced SMAD2/3 (CAGA12) luciferase reporter signalling in A204 cells (ligand with the cells' receptors) [4]: 10.8 nM
IC50 of the trap for inhibition of ligand-induced SMAD1/5/8 (BRE) luciferase reporter signalling in T98G cells (ligand with the cells' receptors) (BMP10): 1.1 nM
IC50 of the trap for inhibition of ligand-induced SMAD2/3 (CAGA12) luciferase reporter signalling in A204 cells (ligand with the cells' receptors) (activin B): 1.65 nM
IC50 of the trap for inhibition of ligand-induced SMAD2/3 (CAGA12) luciferase reporter signalling in A204 cells (ligand with the cells' receptors) (GDF11 [5]): 2.42 nM
B4: IIB-Fc:ALK3-Fc heterodimer (human ActRIIB ECD-Fc paired with human ALK3 ECD-Fc) (Fc fusion)
chain 1: B2 chain
chain 2: QNLDSMLHGTGMKSDSDQKKSENGVTLAPEDTLPFLKCYCSGHCPDDAINNTCITNGHCFAIIEEDDQGETTLASGCMKYEGSDFQCKDSPKAQLRRTIECCRTNLCNQYLQPTLPPVVIGPFFDGSIR

IC50 of the trap for inhibition of ligand-induced SMAD2/3 (CAGA12) luciferase reporter signalling in A204 cells (ligand with the cells' receptors) (activin A [3]): 2.86 nM
IC50 of the trap for inhibition of ligand-induced SMAD1/5/8 (BRE) luciferase reporter signalling in T98G cells (ligand with the cells' receptors) (BMP9): 31 nM
IC50 of the trap for inhibition of ligand-induced SMAD2/3 (CAGA12) luciferase reporter signalling in A204 cells (ligand with the cells' receptors) [4]: 9.15 nM
IC50 of the trap for inhibition of ligand-induced SMAD1/5/8 (BRE) luciferase reporter signalling in T98G cells (ligand with the cells' receptors) (BMP10): 2.01 nM
IC50 of the trap for inhibition of ligand-induced SMAD2/3 (CAGA12) luciferase reporter signalling in A204 cells (ligand with the cells' receptors) (activin B): 0.26 nM
IC50 of the trap for inhibition of ligand-induced SMAD2/3 (CAGA12) luciferase reporter signalling in A204 cells (ligand with the cells' receptors) (GDF11 [5]): 2.34 nM
B5: IIB-Fc:ALK7-Fc heterodimer (human ActRIIB ECD-Fc paired with human ALK7 ECD-Fc) (Fc fusion)
chain 1: B2 chain
chain 2: GLKCVCLLCDSSNFTCQTEGACWASVMLTNGKEQVIKSCVSLPELNAQVFCHSSNNVTKTECCFTDFCNNITLHLPTASPNAPKLGPME
